The target in this experiment is GnRH binding sites on neoplastic cells (plasma membranes of the SW-48 colon adenocarcinoma cell line in the binding assay). Nature of the experiment: binding of 125I-GnRH to plasma membranes of SW-48 cells, filter assay.

Turning to “125I-GnRH (from UniProt P01148) (peptide)”, the non-specific binding was 37%.

Source of the values: patent US20090181894A1.
